Laboratory results as given in patent US20220106391A1 (ZOETIS SERVICES, published 2022).

T1: canine beta-NGF (cNGF) (canine, UniProt Q29074 110-229 (pig entry))
T1 chain: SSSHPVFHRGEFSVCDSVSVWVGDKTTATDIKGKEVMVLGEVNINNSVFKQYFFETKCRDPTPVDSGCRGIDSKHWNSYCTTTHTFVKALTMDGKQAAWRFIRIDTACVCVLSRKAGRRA


How the values were obtained:
canine beta-NGF (cNGF) [1] = biological target: T1, canine beta-NGF (cNGF); test: cell-based or functional assay
canine beta-NGF (cNGF) [2] = biological target: T1, canine beta-NGF (cNGF); test: SPR (Biacore)
canine beta-NGF (cNGF) [3] = biological target: T1, canine beta-NGF (cNGF); test: cell-based or functional assay

Binder | Average Max % Inhib. (pERK 1/2, CHO cells expressing human TrkA) (canine beta-NGF (cNGF) [1]) | IC50 (pERK 1/2, CHO cells expressing human TrkA) (canine beta-NGF (cNGF) [1]) | Kd (canine beta-NGF (cNGF) [2]) | IC50 [nM] (TrkA cell based assay) (canine beta-NGF (cNGF) [3])
16G01-02F03 (antibody, IgG2a, V domains shown) VH: EVQLQESGAELVKPGASVKLSCKASGYTFTNYWMHWVKQRPGQGLEWIGHIDPSDGETHYNQKFKDKATLTVDKSSSTAYMQLTGLTSEDSAVYYCARFLPDYWGQGTSVTVSS VL: DIVLTQTPAIMSASPGEKVTMTCRASSSVSSIYLHWYQQKPGSSPKLWIYSTSNLASGVPARFSGSGSGTSYSLTVSSVEAEDAATYYCQLYDNSPLTFGAGT | 27.7% |  |  | 
15H02-02E01 (antibody, IgG1, V domains shown) VH: EVQLEQSGPGLVAPSQSLSITCTVSGFSLTGYGVNWVRQPPGKGLEWLGMIWGDGSTDYNSALKSRLSISKDNSKSQVFLKMNSLQTDDTARYYCARDGYYYGTTWYFDVWGAGTTVTVSS VL: DIVLTQSTSSLSASLGDRVTISCRASQDISNYLNWYQQKPDGTIKLLIYYTSRLHSGVPSRFSGSGSGTDYSLTISNLEQEDIATYFCQQGSTLPRTFGGGT | 88.2% | 18.8 nM |  | 
30E01-02A11 (antibody, IgG1, V domains shown) VH: QVKLEESGPGLVAPSQSLSITCTVSGFSLTGYGVNWVRQPPGKGLEWLGMIWGDGSTDYNSALKSRLSISKDNSKSQVFLKMNSLQTDDTARYYCARDGYYYGTTWYFDVWGAGTTVTVSS VL: DIVLTQTTSSLSASLGDRVTISCRASQDISNYLNWYQQKPDGTIKLLIYYTSRLHSGVPSRFSGSGSGTDYSLTISNLEQEDIATYFCQQGSTLPRTFGGGT | 72.4% | 9.8 nM |  | 
02B04-02A08 (antibody, V domains shown) VH: EVKLEESGPGLVAPSQSLSITCTVSGFSLTGYGVNWVRQPPGKGLEWLGMIWGDGSTDYNSALKSRLNISKDNSKSQVFLKMDSLQTDDTARYYCARGGYDYDVPFFDYWGQGTTLTVSS VL: DIVMTQTTSSLSASLGDRVTISCRASQDISNYLNWYQQKPDGTVKLLIYYTSRLHSGVPSRFSGSGSGTDYSLTISNLEQEDIATYFCQQGNMFPYTLGGGT | 82.2% | 4 nM |  | 
20D11-02E10 (antibody, IgG1, V domains shown) VH: EVQLEESGPGLVAPSQSLSITCTVSGFSLTGYGVNWVRQPPGKGLEWLGMIWGDGSTDYNSALKSRLSISKDNSKSQVFLKMNSLQTDDTARYYCARDGYYYGTTWYFDVWGAGTTVTVSS VL: DIVITQTPLSLPVSLGDQASISCRSSQSIVHINRHTYLGWYLQKPGQSLKLLIYGVSNRFSGVPDRFSGSGSGTDFTLKISRVEAEDMGVYYCFQGTHVPFTFGSGT | 78.1% | 5.5 nM |  | 
01B12 Chimera (antibody, V domains shown, Mouse variable domains on canine IgG constant regions; 184 and 160; also called Chim-01B12) VH: QVQLKESGPGLVAPSQSLSITCTVSGFSLTGYGVNWVRQPPGKGLEWLGMIWGDGSTDYNSALKSRLSISKDNSKSQVFLKMNSLQTDDTARYYCARDGYYYGTTWYFDVWGAGTTVTV VL: DIQMTQTTSSLSASLGDRVTISCRASQDISNYLNWYQQKPDGTIKLLIYYTSRLHSGVPSRFSGSGSGTDYSLTISNLEQEDIATYFCQQGSTLPRTFGGGT |  |  | 1.18 nM | 1.02 nM
31F05-02B03 (antibody, IgG1, V domains shown) VH: EVQLQQSGPGLVAPSQSLSITCTVSGFSLTGYGVNWVRQPPGKGLEWLGMIWGDGSTDYNSALKSRLSISKDNSKSQVFLKMNSLQTDDTARYYCARDGYYYGTTWYFDVWGAGTTVTVSS VL: DIQMTQTTSSLSASLGDRVTISCRASQDISNYLNWYQQKPDGTIKLLIYYTSRLHSGVPSRFSGSGSGTDYSLTISNLEQEDIATYFCQQGSTLPRTFGGGT | 86.2% | 4.1 nM |  | 
01B12-02B08 (antibody, IgG1, V domains shown) VH: EVKLQESGPGLVAPSQSLSITCTVSGFSLTGYGVNWVRQPPGKGLEWLGMIWGDGSTDYNSALKSRLSISKDNSKSQVFLKMNSLQTDDTARYYCARDGYYYGTTWYFDVWGAGTTVTVSS VL: DIVMTQSTSSLSASLGDRVTISCRASQDISNYLNWYQQKPDGTIKLLIYYTSRLHSGVPSRFSGSGSGTDYSLTISNLEQEDIATYFCQQGSTLPRTFGGGT | 87.1% | 4.7 nM |  | 
26C08-02F06 (antibody, IgG1, V domains shown) VH: EVKLEESGPGLVAPSQSLSITCTVSGFSLTGYGVNWVRQPPGKGLEWLGMIWGDGSTDYNSALKSRLSISKDNSKSQVFLKMNSLQTDDTARYYCARGGYDYDVSFFDYWGQGTTLTVSS VL: DIVLTQTTSSLSASLGDRVTISCRASQDISNYLNWYQQKPDGTVKLLIYYTSRFHSGVPSRFSGSGSGTDYSLTISNLEHEDIATYFCQQGNTLPYTFGGGT | 57.4% | 7.1 nM |  | 
H3AQC23L5A (antibody, V domains shown, Caninized IgG) VH: EVQLVESGGDLARPGGSLKLSCVVSGFTLTQYGINWVRQAPGKGLQWVTVIWATGATDYNSALKSRFTVSRDNAMNTVYLQMNSLRVEDTAVYYCARDGWWYATSWYFDVWGQGTLVTVSS VL: DIVMTQTPLSLSVSPGEPASISCKASQDINHYLNWFRQKPDGTVKLLIYYTSSLHSGVPSRFSGSGSGTDFTLRISRVEADDAGVYYCQQGDHFPRTFGQGT |  |  | 0.089 nM | 2.32 nM
H3AQC23L2AL3 (antibody, V domains shown) VH: EVQLVESGGDLARPGGSLKLSCVVSGFTLTQYGINWVRQAPGKGLQWVTVIWATGATDYNSALKSRFTVSRDNAMNTVYLQMNSLRVEDTAVYYCARDGWWYATSWYFDVWGQGTLVTVSS VL: DIVMTQTPLSLSVSPGEPASISCRASQSISNNLNWFRQKPDGTVKLLIYYISSFHSGVPSRFSGSGSGTDFTLRISRVEADDAGVYYCQQGDHFPYTFGQGT |  |  |  | 2.57 nM
H3A02B4VL1 (antibody, V domains shown, Caninized IgG) VH: EVQLVESGGDLARPGGSLKLSCVVSGFTLTQYGINWVRQAPGKGLQWVTVIWATGATDYNSALKSRFTVSRDNAMNTVYLQMNSLRVEDTAVYYCARDGWWYATSWYFDVWGQGTLVTVSS VL: EIVMTQSPASLSLSQEEKVTITCRASQDISNYLNWYQQKPGQAPKLLIYYTSRLHSGVPSRFSGSGSGTDFSFTISSLEPEDVAVYYCQQGNMFPYTFGGGT |  |  | 0.16 nM | 1.4 nM
H3AQC23L2AL1 (antibody, V domains shown) VH: EVQLVESGGDLARPGGSLKLSCVVSGFTLTQYGINWVRQAPGKGLQWVTVIWATGATDYNSALKSRFTVSRDNAMNTVYLQMNSLRVEDTAVYYCARDGWWYATSWYFDVWGQGTLVTVSS VL: DIVMTQTPLSLSVSPGEPASISCKASQSINHYLNWFRQKPDGTVKLLIYYISSFHSGVPSRFSGSGSGTDFTLRISRVEADDAGVYYCQQSHTLPYTFGQGT |  |  |  | 4.4 nM
H3AQC2301B12L6AL2 (antibody, V domains shown) VH: EVQLVESGGDLARPGGSLKLSCVVSGFTLTQYGINWVRQAPGKGLQWVTVIWATGATDYNSALKSRFTVSRDNAMNTVYLQMNSLRVEDTAVYYCARDGWWYATSWYFDVWGQGTLVTVSS VL: DIVMTQTPLSLSVSPGEPASISCRASQDISNYLNWFRQKPDGTVKLLIYYVTSLHAGVPSRFSGSGSGTDFTLRISRVEADDAGVYYCQQGSTLPRTFGQGT |  |  |  | 10 nM
H3AQC2301B12LC (antibody, V domains shown, Caninized IgG, light chain QC2301B12VK) VH: EVQLVESGGDLARPGGSLKLSCVVSGFTLTQYGINWVRQAPGKGLQWVTVIWATGATDYNSALKSRFTVSRDNAMNTVYLQMNSLRVEDTAVYYCARDGWWYATSWYFDVWGQGTLVTVSS VL: DIVMTQTPLSLSVSPGEPASISCRASQDISNYLNWFRQKPDGTVKLLIYYTSRLHSGVPSRFSGSGSGTDFTLRISRVEADDAGVYYCQQGSTLPRTFGQGT |  |  | 1.13 nM | 0.8 nM
H3AQC23L6A (antibody, V domains shown) VH: EVQLVESGGDLARPGGSLKLSCVVSGFTLTQYGINWVRQAPGKGLQWVTVIWATGATDYNSALKSRFTVSRDNAMNTVYLQMNSLRVEDTAVYYCARDGWWYATSWYFDVWGQGTLVTVSS VL: DIVMTQTPLSLSVSPGEPASISCKASQDINHYLNWFRQKPDGTVKLLIYYVTSLHAGVPSRFSGSGSGTDFTLRISRVEADDAGVYYCQQGDHFPRTFGQGT |  |  |  | 16.9 nM
H3AQC2301B12L5AL2 (antibody, V domains shown, Caninized IgG) VH: EVQLVESGGDLARPGGSLKLSCVVSGFTLTQYGINWVRQAPGKGLQWVTVIWATGATDYNSALKSRFTVSRDNAMNTVYLQMNSLRVEDTAVYYCARDGWWYATSWYFDVWGQGTLVTVSS VL: DIVMTQTPLSLSVSPGEPASISCRASQDISNYLNWFRQKPDGTVKLLIYYTSSLHSGVPSRFSGSGSGTDFTLRISRVEADDAGVYYCQQGSTLPRTFGQGT |  |  | 12.5 nM | 9.7 nM
H3A02B4L1AL1 (antibody, V domains shown, Caninized IgG) VH: EVQLVESGGDLARPGGSLKLSCVVSGFTLTQYGINWVRQAPGKGLQWVTVIWATGATDYNSALKSRFTVSRDNAMNTVYLQMNSLRVEDTAVYYCARDGWWYATSWYFDVWGQGTLVTVSS VL: EIVMTQSPASLSLSQEEKVTITCKASQDINHYLNWYQQKPGQAPKLLIYYTSRLHSGVPSRFSGSGSGTDFSFTISSLEPEDVAVYYCQQGNMFPYTFGGGT |  |  | 2 nM | 1.56 nM
H3AQC2301B12L1AL1 (antibody, V domains shown, Caninized IgG) VH: EVQLVESGGDLARPGGSLKLSCVVSGFTLTQYGINWVRQAPGKGLQWVTVIWATGATDYNSALKSRFTVSRDNAMNTVYLQMNSLRVEDTAVYYCARDGWWYATSWYFDVWGQGTLVTVSS VL: DIVMTQTPLSLSVSPGEPASISCKASQSINHYLNWFRQKPDGTVKLLIYYTSRLHSGVPSRFSGSGSGTDFTLRISRVEADDAGVYYCQQGSTLPRTFGQGT |  |  | 1.07 nM | 0.65 nM
H3AQC2301B12L2AL1 (antibody, V domains shown, Caninized IgG) VH: EVQLVESGGDLARPGGSLKLSCVVSGFTLTQYGINWVRQAPGKGLQWVTVIWATGATDYNSALKSRFTVSRDNAMNTVYLQMNSLRVEDTAVYYCARDGWWYATSWYFDVWGQGTLVTVSS VL: DIVMTQTPLSLSVSPGEPASISCKASQSINHYLNWFRQKPDGTVKLLIYYTSRLHSGVPSRFSGSGSGTDFTLRISRVEADDAGVYYCQQGSTLPRTFGQGT |  |  | 0.435 nM | 0.99 nM
